# System: Bacillus subtilis
# Test: cleaved RNA product abundance (RNA/gDNA barcode ratio) relative to median wild-type variant (ratio to wild type); higher = more accumulation of the downstream cleavage product
# Details: experiment (reporter, strain, medium): exp 8a: truncated aprE reporter, strain BJT201 with 2% xylose (RNase J1 expressed); cleavage site: glnRA (positions -5 to +31 mutated)
# How it was run: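 Oligos with a 9% error rate were used to build barcoded, mutagenized RNase Y cleavage-site windows within truncated aprE or tetM reporter mRNAs, which were integrated into the B. subtilis chromosome. Cultures were grown in LB at 37°C between OD600 0.0003 and 0.3. Cleaved RNA was gel-selected, reverse transcribed and barcode-sequenced, as were genomic DNA barcodes, and UMIs were collapsed. Cleaved product abundance is the scaled RNA:gDNA barcode ratio, with the median construct carrying the unmutated site as reference.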
row,Sequence,cleaved RNA product abundance
1,CGACATGTCCCGCTTCTTTCATTAATCAGTTAGCAACTGTTTTGCTATACACATTTACCTTTTAAGAGGAGGAAT,0.225
2,CGACATGTCCCGCTTCTTTCATTAATCAGTTAGCAACTGTTTTGCTATATAAATTTACCTTTTAAGAGGAGGAAT,0.682
3,CGACATGTCCCGCTTCTTTCATTAATCAGTTAGCAACTGTTTTGCTATATACATATACCTTTTAAGAGGAGGAAT,1.04
4,CGACATGTCCCGCTTCTTTCATTAATCAGTTAGCAACTGTTTTGCTATATACATTAACCTTTTAAGAGGAGGAAT,0.984
5,CGACATGTCCCGCTTCTTTCATTAATCAGTTAGCAACTGTTTTGCTATATACATTTAACTTTTAAGAGGAGGAAT,0.983
6,CGACATGTCCCGCTTCTTTCATTAATCAGTTAGCAACTGTTTTGCTATATACATTTACATTTTAAGAGGAGGAAT,0.595
7,CGACATGTCCCGCTTCTTTCATTAATCAGTTAGCAACTGTTTTGCTATATACATTTACCATTAAGAGGAGGAATT,1.4
8,CGACATGTCCCGCTTCTTTCATTAATCAGTTAGCAACTGTTTTGCTATATACATTTACCATTTAAGAGGAGGAAT,0.636
9,CGACATGTCCCGCTTCTTTCATTAATCAGTTAGCAACTGTTTTGCTATATACATTTACCCTTTAAGAGGAGGAAT,1.22
10,CGACATGTCCCGCTTCTTTCATTAATCAGTTAGCAACTGTTTTGCTATATACATTTACCGTTTAAGAGGAGGAAT,0.649
11,CGACATGTCCCGCTTCTTTCATTAATCAGTTAGCAACTGTTTTGCTATATACATTTACCTTTTAAGAGGAGGAAT,0.763
12,CGACATGTCCCGCTTCTTTCATTAATCAGTTAGCAACTGTTTTGCTATATACATTTACTTTTTAAGAGGAGGAAT,0.903
13,CGACATGTCCCGCTTCTTTCATTAATCAGTTAGCAACTGTTTTGCTATATACATTTATCTTTTAAGAGGAGGAAT,0.854
14,CGACATGTCCCGCTTCTTTCATTAATCAGTTAGCAACTGTTTTGCTATATACTTTTACCTTTTAAGAGGAGGAAT,0.343
15,CGACATGTCCCGCTTCTTTCATTAATCAGTTAGCAACTGTTTTGCTATATAGATTTACCTTTTAAGAGGAGGAAT,0.842
16,CGACATGTCCCGCTTCTTTCATTAATCAGTTAGCAACTGTTTTGCTATATATATTTACCTTTTAAGAGGAGGAAT,0.759
17,CGACATGTCCCGCTTCTTTCATTAATCAGTTAGCAACTGTTTTGTTATATACATTTACCTTTTAAGAGGAGGAAT,0.523
18,CGACATGTCCCGCTTCTTTCATTAATCAGTTAGCAACTGTTTTTCTATATACATTTACCTTTTAAGAGGAGGAAT,0.642
19,CGACATGTCCCGCTTCTTTCATTAATCAGTTAGCAACTTTTTTGCTATATACATTTACCTTTTAAGAGGAGGAAT,1.18
20,CGACATGTCCCGCTTCTTTCATTAATCAGTTAGCATCTGTTTTGCTATATACATTTACCTTTTAAGAGGAGGAAT,0.725
21,CGACATGTCCCGCTTCTTTCATTAATCAGTTAGCTACTGTTTTGCTATATACATTTACCTTTTAAGAGGAGGAAT,0.423
22,CGACATGTCCCGCTTCTTTCATTAATCAGTTAGTAACTGTTTTGCTATATACATTTACCTTTTAAGAGGAGGAAT,0.421

row,Sequence,cleaved RNA product abundance
1,CGACATGTCCCGCTTCTTTCATTAATCAGTTATCAACTGTTTTGCTATATACATTTACCTTTTAAGAGGAGGAAT,0.307
2,CGACATGTCCCGCTTCTTTCATTAATCAGTTGGCAACTGTTTTGCTATATACATTTACCTTTTAAGAGGAGGAAT,0.497
3,CGACATGTCCCGCTTCTTTCATTAATCAGTTTGCAACTGTTTTGCTATATACATTTACCTTTTAAGAGGAGGAAT,0.686
4,CGACATGTCCCGCTTCTTTCATTAATCATTTAGCAACTGTTTTGCTATATACATTTACCTTTTAAGAGGAGGAAT,0.249
5,CGACATGTCCCGCTTCTTTCATTAATCCAATAGCAACTGTTTTGCTATATACATTTACCTTTTAAGAGGAGGAAT,0.553
6,CGACATGTCCCGCTTCTTTCATTAATCCATAAGCAACTGTTTTGCTATATACATTTACCTTTTAAGAGGAGGAAT,0.462
7,CGACATGTCCCGCTTCTTTCATTAATCCATCAGCAACTGTTTTGCTATATACATATACCTTTTAAGAGGAGGAAT,0.507
8,CGACATGTCCCGCTTCTTTCATTAATCCATCAGCAACTGTTTTGCTATATACATTTACCTTTTAAGAGGAGGAAT,0.41
9,CGACATGTCCCGCTTCTTTCATTAATCCATTAACAACTGTTTTGCTATATACATTTACCTTTTAAGAGGAGGAAT,0.198
10,CGACATGTCCCGCTTCTTTCATTAATCCATTACCAACTGTTTTACTATATACATTTACCTTTTAAGAGGAGGAAT,0.262
11,CGACATGTCCCGCTTCTTTCATTAATCCATTACCAACTGTTTTGCTATATACATTTACCTTTTAAGAGGAGGAAT,0.17
12,CGACATGTCCCGCTTCTTTCATTAATCCATTAGAAACTGTTTTGCTATATACATTTACCTTTTAAGAGGAGGAAT,0.244
13,CGACATGTCCCGCTTCTTTCATTAATCCATTAGAAACTGTTTTGCTATATAGATTTACCTTTTAAGAGGAGGAAT,0.302
14,CGACATGTCCCGCTTCTTTCATTAATCCATTAGAAACTGTTTTTCTATTTACATTTACCTTTTAAGAGGAGGAAT,0.127
15,CGACATGTCCCGCTTCTTTCATTAATCCATTAGCAAATGTTTTGCTATATACATTTACCTTTTAAGAGGAGGAAT,1.18
16,CGACATGTCCCGCTTCTTTCATTAATCCATTAGCAACTATTTTGCTATATACATTTACCTTTTAAGAGGAGGAAT,0.423
17,CGACATGTCCCGCTTCTTTCATTAATCCATTAGCAACTGATTTGCTATATACATTTACCTTTTAAGAGGAGGAAT,0.89
18,CGACATGTCCCGCTTCTTTCATTAATCCATTAGCAACTGTATTGCTATATACATTTACCTTTTAAGAGGAGGAAT,0.279
19,CGACATGTCCCGCTTCTTTCATTAATCCATTAGCAACTGTTATGCTATATACATTTACCTTTTAAGAGGAGGAAT,0.555
20,CGACATGTCCCGCTTCTTTCATTAATCCATTAGCAACTGTTCTGCTATATACATTTACCTTTTAAGAGGAGGAAT,0.271
21,CGACATGTCCCGCTTCTTTCATTAATCCATTAGCAACTGTTTCGCTATATACATTTACCTTTTAAGAGGAGGAAT,0.271
22,CGACATGTCCCGCTTCTTTCATTAATCCATTAGCAACTGTTTGGCTATATACATTTACCTTTTAAGAGGAGGAAT,0.386

row,Sequence,cleaved RNA product abundance
1,CGACATGTCCCGCTTCTTTCATTAATCCATTAGCAACTGTTTTACTATATACATATACCTTTTAAGAGGAGGAAT,0.482
2,CGACATGTCCCGCTTCTTTCATTAATCCATTAGCAACTGTTTTACTATATACATTTACCTTTTAAGAGGAGGAAT,0.48
3,CGACATGTCCCGCTTCTTTCATTAATCCATTAGCAACTGTTTTGATATATACAGTTACCTTTTAAGAGGAGGAAT,0.247
4,CGACATGTCCCGCTTCTTTCATTAATCCATTAGCAACTGTTTTGATATATACATTTACCTTTTAAGAGGAGGAAT,0.35
5,CGACATGTCCCGCTTCTTTCATTAATCCATTAGCAACTGTTTTGCAATATACATTTACCTTTTAAGAGGAGGAAT,0.408
6,CGACATGTCCCGCTTCTTTCATTAATCCATTAGCAACTGTTTTGCTAAATACATTTACCTTTTAAGAGGAGGAAT,0.47
7,CGACATGTCCCGCTTCTTTCATTAATCCATTAGCAACTGTTTTGCTACATACATTTACCTTTTAAGAGGAGGAAT,0.772
8,CGACATGTCCCGCTTCTTTCATTAATCCATTAGCAACTGTTTTGCTATAGACATTTACCTTTTAAGAGGAGGAAT,0.532
9,CGACATGTCCCGCTTCTTTCATTAATCCATTAGCAACTGTTTTGCTATATAAATTTACCTTTTAAGAGGAGGAAT,0.754
10,CGACATGTCCCGCTTCTTTCATTAATCCATTAGCAACTGTTTTGCTATATACATATACCTTTTAAGAGGAGGAAT,0.929
11,CGACATGTCCCGCTTCTTTCATTAATCCATTAGCAACTGTTTTGCTATATACATCTACCTTTTAAGAGGAGGAAT,0.942
12,CGACATGTCCCGCTTCTTTCATTAATCCATTAGCAACTGTTTTGCTATATACATTAACCTTTTAAGAGGAGGAAT,1.3
13,CGACATGTCCCGCTTCTTTCATTAATCCATTAGCAACTGTTTTGCTATATACATTCACCTTTTAAGAGGAGGAAT,0.276
14,CGACATGTCCCGCTTCTTTCATTAATCCATTAGCAACTGTTTTGCTATATACATTTACATTTTAAGAGGAGGAAT,0.688
15,CGACATGTCCCGCTTCTTTCATTAATCCATTAGCAACTGTTTTGCTATATACATTTACCTTTTAAGAGGAGGAAT,0.857
16,CGACATGTCCCGCTTCTTTCATTAATCCATTAGCAACTGTTTTGCTATATACATTTACGTTTTAAGAGGAGGAAT,0.903
17,CGACATGTCCCGCTTCTTTCATTAATCCATTAGCAACTGTTTTGCTATATACATTTACTTTTTAAGAGGAGGAAT,0.808
18,CGACATGTCCCGCTTCTTTCATTAATCCATTAGCAACTGTTTTGCTATATACATTTATCTTTTAAGAGGAGGAAT,0.777
19,CGACATGTCCCGCTTCTTTCATTAATCCATTAGCAACTGTTTTGCTATATACATTTTACTTTTAAGAGGAGGAAT,1.24
20,CGACATGTCCCGCTTCTTTCATTAATCCATTAGCAACTGTTTTGCTATATACATTTTCCTTTTAAGAGGAGGAAT,0.292
21,CGACATGTCCCGCTTCTTTCATTAATCCATTAGCAACTGTTTTGCTATATACTTTTACCTTTTAAGAGGAGGAAT,0.253
22,CGACATGTCCCGCTTCTTTCATTAATCCATTAGCAACTGTTTTGCTATATATATTTACCTTTTAAGAGGAGGAAT,0.973

# — the supplement of paper PMC11780869
